Data from patent US20230094463A1, “ANTIBODIES THAT DISRUPT THE INTERACTION OF GAL3 AND INSULIN RECEPTOR OR INTEGRINS AND METHODS OF USE THEREOF” (TrueBinding, Inc., priority 2019, published 2023).
Residue numbers refer to the chain shown, from its start. Names may count otherwise. One block for each binder: values may come before it.

Legend:
[1] = target: Human GAL3 protein (TrueBinding, QCB200349 / QCB200352; R&D Systems, 8259-GA) (human) (UniProt P17931); test: cell-based or functional assay
[2] = target: Human GAL3 protein (TrueBinding, QCB200349 / QCB200352; R&D Systems, 8259-GA) (human) (UniProt P17931); test: blocking ELISA (GAL3 coated; antibody + biotinylated ITGa3)
[3] = target: Human GAL3 protein (TrueBinding, QCB200349 / QCB200352; R&D Systems, 8259-GA) (human) (UniProt P17931); test: blocking ELISA (GAL3 coated; antibody + biotinylated ITGb3)
[4] = target: Human GAL3 protein (TrueBinding, QCB200349 / QCB200352; R&D Systems, 8259-GA) (human) (UniProt P17931); test: blocking ELISA (GAL3 coated; antibody + biotinylated ITGb1)
[5] = target: Human GAL3 protein (TrueBinding, QCB200349 / QCB200352; R&D Systems, 8259-GA) (human) (UniProt P17931); test: blocking ELISA (GAL3 coated; antibody + biotinylated ITGaV)
Throughout, for inhibition of Jurkat T cell adhesion: test concentration or dose not given here.

Sequence of Human GAL3 protein (TrueBinding, QCB200349 / QCB200352; R&D Systems, 8259-GA) (human) (P17931 2-250 limits assumed): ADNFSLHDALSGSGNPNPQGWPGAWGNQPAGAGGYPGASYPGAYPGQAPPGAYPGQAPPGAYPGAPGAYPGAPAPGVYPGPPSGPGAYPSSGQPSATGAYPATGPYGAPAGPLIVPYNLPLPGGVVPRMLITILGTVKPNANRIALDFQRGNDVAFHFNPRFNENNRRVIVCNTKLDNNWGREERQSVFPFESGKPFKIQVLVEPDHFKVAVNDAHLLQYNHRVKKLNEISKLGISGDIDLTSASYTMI

B3: 7D8.2D8 (antibody, V domains shown)
VH: EVQLVESGGGLVKPGGSLKLSCAASGFTFSSYAMSWVRQTPEKRLEWVATISDGGIYTYYPDNVKGRFTISRDNAKNNLFLQMSHLKSEDTAMYYCVRDGGYWGQGTTLTVSS
VL: DVLMTQTPLSLPVSLGDQASISCRSSQSIVHSNGNTYLEWYLQKPGQSPKLLIYKVSNRFSGVPDRFSGSGSGTDFTLKISRVEAEDLGVYYCFQGSHVPLTFGAGTKLELK
inhibition of Jurkat T cell adhesion [1]: 40 to 80%
percent blockade of GAL3-ITGb1 interaction [4]: 40 to 60%
percent blockade of GAL3-ITGa3 interaction [2]: > 90%

B4: F849C.8D10 (antibody, V domains shown)
VH: QVQLQQTGAELVKPGASVKLSCKASGYTFTSYWINWVKQRPGQGLEWIGNIYPGSSSIYYSEKFKSKATLTVDTSSSTAYMQLSSLTSDDSAVYYCARWGYWGQGTTLTVSS
VL: DVLMTQTPLSLPVSLGDQASISCRSSQDIVHSSGNTYLEWYLQKPGQSLKLLIYKVSNRFSGVPDRFSASGSGTDFTLKISRVEAEDLGVYYCFQGSHVPPTFGSGTKLEIKR
percent blockade of GAL3-ITGaV interaction [5]: > 90%

Now from value to binder:

inhibition of Jurkat T cell adhesion [1]: 40 to 80%
percent blockade of GAL3-ITGa3 interaction [2]: > 90%
percent blockade of GAL3-ITGb3 interaction [3]: > 90%
B1: F846TC.14E4 (antibody, V domains shown)
VH: QVTLKESGPGILQPSQTLSLTCSFSGFSLSTSGMGVGWIRQPSGKGLEWLAHIWWDDDKYYNTALKSGLTISKDASKNQVFLKIASMDTADTATYYCARNLYDGSYGYYAMDYWGQGTSVTVSS
VL: DIVMTQAAFSNPVTLGTSASISCRSSKSLLHTNGITFLYWYLQKPGQSPQPLIYQMSNLASGVPDRFSSSGSGTDFTLRISRVEAEDVGVYYCAQNLELPWTFGGGTKLEINR

inhibition of Jurkat T cell adhesion [1]: 40 to 80%
percent blockade of GAL3-ITGb1 interaction [4]: 40 to 60%
percent blockade of GAL3-ITGa3 interaction [2]: > 90%
B2: 15F10.2D6 (antibody, V domains shown)
VH: B3 VH with T28A, I56V, P61T, N63H, K76E, N77D, F80Y
VL: B3 VL with S32N, A105G
